Assay results as given in patent US20250051445A1.
Numbering of substitutions follows the chain as printed.

B1: TPP-1391 Fab fragment (Fab, V domains shown)
VH: EVQLVQSGAEVKKPGASVKVSCKASGYKFTSYVMHWVRQAPGQGLEWMGYINPYRDVTKYAEKFQGRVTLTSDTSTSTAYMELSSLRSEDTAVYYCARGSYYDYEGFVYWGQGTLVTVSS
VL: QIQMTQSPSSLSASVGDRVTITCSATSSVSYMHWYQQKPGKAPKRWIYDTSKLASGVPSRFSGSGSGTDYTLTISSLQPEDAATYYCQQWSSNPLTFGGGTKVEIKR
B2: TPP-1363 Fab fragment (Fab, V domains shown)
VH: B1 VH with R55K
VL: B1 VL
B3: TPP-1388 Fab fragment (Fab, V domains shown)
VH: B1 VH with S31R, R55N
VL: B1 VL
B4: TPP-1393 Fab fragment (Fab, V domains shown)
VH: B1 VH with R55N
VL: B1 VL with S55R
B5: TPP-1380 Fab fragment (Fab, V domains shown)
VH: B1 VH with Y94H
VL: B1 VL
B6: TPP-1381 Fab fragment (Fab, V domains shown)
VH: B1 VH with R55K, Y94H
VL: B1 VL
B7: TPP-1367 Fab fragment (Fab, V domains shown)
VH: B1 VH with R55N, Y94H
VL: B1 VL with S55R
B8: TPP-1384 Fab fragment (Fab, V domains shown)
VH: B1 VH with R55N, Y94H
VL: B1 VL with S55K
B9: TPP-1382 Fab fragment (Fab, V domains shown)
VH: B1 VH with R55N, Y94H
VL: B1 VL with S30R
B10: TPP-1375 Fab fragment (Fab, V domains shown)
VH: B1 VH with T30R, R55N, Y94H
VL: B1 VL
B11: TPP-1389 Fab fragment (Fab, V domains shown)
VH: B1 VH with S31R, R55N
VL: B1 VL with S55R
B12: TPP-1390 Fab fragment (Fab, V domains shown)
VH: B1 VH with Y54R, R55N
VL: B1 VL
B13: TPP-1387 Fab fragment (Fab, V domains shown)
VH: B1 VH with R55N
VL: B1 VL
B14: TPP-1372 Fab fragment (Fab, V domains shown)
VH: B1 VH with R55K
VL: B1 VL with S55R
B15: TPP-1360 Fab fragment (Fab, V domains shown)
VH: B1 VH with S31R, R55N, Y94H
VL: B1 VL
B16: TPP-1379 Fab fragment (Fab, V domains shown)
VH: B1 VH with Y54K, R55N, Y94H
VL: B1 VL
B17: TPP-1374, Fab fragment of BMA031 (V36) (Fab, V domains shown)
VH: B1 VH with R55N, Y94H
VL: B1 VL
B18: TPP-1376 Fab fragment (Fab, V domains shown)
VH: B1 VH with T30K, R55N, Y94H
VL: B1 VL
B19: TPP-1392 Fab fragment (Fab, V domains shown)
VH: B1 VH with Y54R, R55N
VL: B1 VL with S55R
B20: TPP-1377 Fab fragment (Fab, V domains shown)
VH: B1 VH with S31K, R55N, Y94H
VL: B1 VL
B21: TPP-1378 Fab fragment (Fab, V domains shown)
VH: B1 VH with Y54R, R55N, Y94H
VL: B1 VL
B22: TPP-1383 Fab fragment (Fab, V domains shown)
VH: B1 VH with R55N, Y94H
VL: B1 VL with S30K

Experiments:
[1] = biological target: α/β TCR/CD3 complex on Jurkat, Clone E6-1 cells (human) (UniProt P07766); test: flow cytometry on Jurkat Clone E6-1 cells, Fab titration 10 µg/ml to 10 ng/ml; EC50 of MFI, fold decrease vs TPP-1374
UniProt P07766, sequence (P07766 23-207, chain 1 of 4): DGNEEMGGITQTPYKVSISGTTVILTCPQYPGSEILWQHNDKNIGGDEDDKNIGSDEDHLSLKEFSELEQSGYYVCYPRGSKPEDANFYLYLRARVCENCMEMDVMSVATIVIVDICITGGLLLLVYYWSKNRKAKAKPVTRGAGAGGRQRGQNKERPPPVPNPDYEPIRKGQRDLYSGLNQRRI
UniProt P07766, sequence (P09693 23-182, chain 2 of 4, further chain): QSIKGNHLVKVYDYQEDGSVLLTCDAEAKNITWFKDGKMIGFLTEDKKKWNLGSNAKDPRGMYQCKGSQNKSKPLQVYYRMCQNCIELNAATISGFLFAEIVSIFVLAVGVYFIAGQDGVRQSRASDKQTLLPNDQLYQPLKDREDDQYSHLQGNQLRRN
UniProt P07766, sequence (P04234 22-171, chain 3 of 4, further chain): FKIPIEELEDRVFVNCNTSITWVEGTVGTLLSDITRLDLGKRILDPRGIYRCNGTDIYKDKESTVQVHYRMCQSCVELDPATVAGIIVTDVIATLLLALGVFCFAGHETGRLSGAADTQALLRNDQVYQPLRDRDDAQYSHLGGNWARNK
UniProt P07766, sequence (P20963 22-164, chain 4 of 4, further chain): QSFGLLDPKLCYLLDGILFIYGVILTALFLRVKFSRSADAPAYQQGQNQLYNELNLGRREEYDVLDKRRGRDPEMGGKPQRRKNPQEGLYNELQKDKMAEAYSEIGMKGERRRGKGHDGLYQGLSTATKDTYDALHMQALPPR

[2] = biological target: α/β TCR/CD3 complex on Jurkat, Clone E6-1 cells (human) (UniProt P07766); test: flow cytometry on Jurkat Clone E6-1 cells, Fab titration 10 µg/ml to 10 ng/ml; AUC of MFI vs log concentration, gain vs TPP-1374
[3] = biological target: α/β TCR/CD3 complex on Jurkat, Clone E6-1 cells (human) (UniProt P07766); test: flow cytometry on Jurkat Clone E6-1 cells, Fab titration 10 µg/ml to 10 ng/ml; AUC of MFI vs log concentration; the reference itself, set to zero

| Binder | fold decrease in EC50 [1] | % gain in binding AUC [2] | % gain in binding AUC [3] |
| --- | --- | --- | --- |
| B1 | 4.7 fold | 245% | – |
| B2 | 7.3 fold | 380% | – |
| B3 | 8.1 fold | 273% | – |
| B4 | 13.9 fold | 226% | – |
| B5 | 2.9 fold | 18% | – |
| B6 | 8.2 fold | 98% | – |
| B7 | 8.8 fold | 220% | – |
| B8 | 4.1 fold | 203% | – |
| B9 | – | -66% | – |
| B10 | 2.1 fold | 87% | – |
| B11 | 31.8 fold | 423% | – |
| B12 | 5.5 fold | 270% | – |
| B13 | 3.2 fold | 14% | – |
| B14 | 21.5 fold | 246% | – |
| B15 | 5.7 fold | 144% | – |
| B16 | – | 1% | – |
| B17 | – | – | 0% |
| B18 | 2.8 fold | 83% | – |
| B19 | 16.6 fold | 813% | – |
| B20 | 4.1 fold | 56% | – |
| B21 | – | 79% | – |
| B22 | – | -73% | – |
